{
  "source": "paper PMC5858766",
  "about": "“Identification of aaNAT5b as a spermine N-acetyltransferase in the mosquito, Aedes aegypti” (PLoS ONE, 2018)",
  "proteins": {"B1": {"name": "aaNAT5b/SAT (Aedes aegypti) (protein)", "chain": "MVAPESIVLRVARLDELEQVREILHRIYYPEEGITISYVHGKSHTLDDERFSLSFVEQGTVVVAEDSAAKKFIGVSIAGPIQPGDPDAMVEEAATTETKKWGDILKLLALLERTADVCGRYGLEKAYHVHILAVDPTYRGHSLGQRLLQFQMDLSKKLGFKAISGDFTSVFSVKLAEKLGMECISQLALGDYRDEKGEKLFEPLDVHQVIKTCVKLL", "notes": "about 25 kDa; monomer"}},
  "experiment_in_all_cases": "purified protein",
  "format_in_all_cases": "biochemical, Aedes aegypti",
  "conditions_in_all_cases": "0.4 mM acetyl-CoA, 50 mM Tris-HCl, 1 mg/mL BSA, room temperature, 5 min; apparent Km",
  "key": {"[1]": {"substrate": "NCCCCNCCCN"}, "[2]": {"substrate": "NCCCNCCCCNCCCN"}, "[3]": {"substrate": "NCCc1c[nH]cn1"}, "[4]": {"substrate": "NN"}, "[5]": {"substrate": "NCCCCN"}, "[6]": {"substrate": "N=C(N)NCCCCN"}},
  "data": [
    {"protein": "B1", "values": [
      {"measurement": "Km", "setting": "[1]", "result": "690 ± 120", "unit": "µM"},
      {"measurement": "kcat", "setting": "[1]", "result": "0.26 ± 0.0233", "unit": "s⁻¹"},
      {"measurement": "kcat/Km", "setting": "[1]", "result": 383, "unit": "M⁻¹ s⁻¹"},
      {"measurement": "Km", "setting": "[2]", "result": "170 ± 40", "unit": "µM"},
      {"measurement": "kcat", "setting": "[2]", "result": "3.32 ± 0.2", "unit": "s⁻¹"},
      {"measurement": "kcat/Km", "setting": "[2]", "result": 19500, "unit": "M⁻¹ s⁻¹"},
      {"measurement": "Km", "setting": "[3]", "result": "700 ± 130", "unit": "µM"},
      {"measurement": "kcat", "setting": "[3]", "result": "0.277 ± 0.0217", "unit": "s⁻¹"},
      {"measurement": "kcat/Km", "setting": "[3]", "result": 400, "unit": "M⁻¹ s⁻¹"},
      {"measurement": "Km", "setting": "[4]", "result": "260 ± 30", "unit": "µM"},
      {"measurement": "kcat", "setting": "[4]", "result": "0.637 ± 0.0283", "unit": "s⁻¹"},
      {"measurement": "kcat/Km", "setting": "[4]", "result": 2450, "unit": "M⁻¹ s⁻¹"},
      {"measurement": "Km", "setting": "[5]", "result": "520 ± 110", "unit": "µM"},
      {"measurement": "kcat", "setting": "[5]", "result": "0.503 ± 0.0267", "unit": "s⁻¹"},
      {"measurement": "kcat/Km", "setting": "[5]", "result": 967, "unit": "M⁻¹ s⁻¹"},
      {"measurement": "Km", "setting": "[6]", "result": "210 ± 50", "unit": "µM"},
      {"measurement": "kcat", "setting": "[6]", "result": "2.5 ± 0.183", "unit": "s⁻¹"},
      {"measurement": "kcat/Km", "setting": "[6]", "result": 11900, "unit": "M⁻¹ s⁻¹"}
    ]}
  ]
}
